This note sets out measurements from patent publication US20260167718A1 (Merck Sharp & Dohme, published 2026).

Residue numbers refer to the chain shown, from its start. Numbers in names are those of the source.

Sequences and labels used below:
B1: Humanized anti-ILT3 mAb (52B8 VH1 M64V/VL5 N34Q) IgG4 S228P/Kappa (antibody, V domains shown)
VH: EVQLVESGGGLVQPGGSLRLSCAASGFTFSNYGMSWVRQAPGKGLEWVATISGGGDYTNYPDSVRGRFTISRDNAKNSLYLQMNSLRAEDTAVYYCGRRLWFRSLYYAMDYWGQGTLVTVSS
VL: DIQLTQSPSSLSASVGDRVTITCRASEKVDSFGQSFMHWYQQKPGKAPKLLIYLTSNLDSGVPSRFSGSGSGTDFTLTISSLQPEDFATYYCQQNNEDPYTFGQGTKLEIKR
notes: also called mAb 46; humanized 52B8
B2: Humanized anti-ILT3 mAb (52B8 VH1 M64L/VL2) IgG4 S228P/Kappa (antibody, V domains shown)
VH: B1 VH with V64L
VL: DIVLTQSPDSLAVSLGERATINCRASEKVDSFGNSFMHWYQQKPGQPPKLLIYLTSNLDSGVPDRFSGSGSGTDFTLTISSLQAEDVAVYYCQQNNEDPYTFGQGTKLEIKR
notes: also called mAb 18
B3: Humanized anti-ILT3 mAb (52B8 VH2 M64L/VL2) IgG4 S228P/Kappa (antibody, V domains shown)
VH: B1 VH with V64L, R87K
VL: B2 VL
notes: also called mAb 22
B4: Humanized anti-ILT3 mAb (52B8 VH2/VL2) IgG4 S228P/Kappa (antibody, V domains shown)
VH: B1 VH with V64M, R87K
VL: B2 VL
notes: also called mAb 6
B5: Humanized anti-ILT3 mAb (52B8 VH1 M64V/VL2) IgG4 S228P/Kappa (antibody)
heavy: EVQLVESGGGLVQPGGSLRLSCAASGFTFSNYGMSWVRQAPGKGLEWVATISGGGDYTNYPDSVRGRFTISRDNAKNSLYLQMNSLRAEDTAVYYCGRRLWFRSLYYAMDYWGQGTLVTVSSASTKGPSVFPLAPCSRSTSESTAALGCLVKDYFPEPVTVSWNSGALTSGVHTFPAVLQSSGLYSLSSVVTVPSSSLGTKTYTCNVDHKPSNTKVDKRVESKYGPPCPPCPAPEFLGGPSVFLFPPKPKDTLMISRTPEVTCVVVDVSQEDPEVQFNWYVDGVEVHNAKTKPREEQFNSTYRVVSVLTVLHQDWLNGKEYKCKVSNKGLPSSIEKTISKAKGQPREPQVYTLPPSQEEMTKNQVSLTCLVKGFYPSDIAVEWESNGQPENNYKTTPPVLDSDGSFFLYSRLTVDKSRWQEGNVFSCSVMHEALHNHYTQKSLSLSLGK
light: DIVLTQSPDSLAVSLGERATINCRASEKVDSFGNSFMHWYQQKPGQPPKLLIYLTSNLDSGVPDRFSGSGSGTDFTLTISSLQAEDVAVYYCQQNNEDPYTFGQGTKLEIKRTVAAPSVFIFPPSDEQLKSGTASVVCLLNNFYPREAKVQWKVDNALQSGNSQESVTEQDSKDSTYSLSSTLTLSKADYEKHKVYACEVTHQGLSSPVTKSFNRGEC
notes: also called mAb 10
B6: Humanized anti-ILT3 mAb (52B8 VH2 M64V/VL2) IgG4 S228P/Kappa (antibody, V domains shown)
VH: B1 VH with R87K
VL: B2 VL
notes: also called mAb 14
B7: Humanized anti-ILT3 mAb (52B8 VH2 M64L/VL1) IgG4 S228P/Kappa (antibody, V domains shown)
VH: B1 VH with V64L, R87K
VL: B2 VL with G72R
notes: also called mAb 21
B8: Humanized anti-ILT3 mAb (52B8 VH1/VL2) IgG4 S228P/Kappa (antibody, V domains shown)
VH: B1 VH with V64M
VL: B2 VL
notes: also called mAb 2
B9: Chimeric anti-ILT3 52B8 mouse VH M64L/human IgG4 (S228P):mouse VL/human Kappa (antibody, V domains shown)
VH: EVQLVESGGDLVKPGGSLKLSCAASGFTFSNYGMSWVRQTPDRRLEWVATISGGGDYTNYPDSLRGRFTISRDNAKNTLYLQMSSLKSEDTAMYYCGRRLWFRSLYYAMDYWGQGTSVTVSS
VL: NIVLTQSPASLAVSLGQRATISCRASEKVDSFGNSFMHWYQQKPGQPPKLLIYLTSNLDSGVPARFSGSGSRTDFALTIDPVEADDAATYYCQQNNEDPYTFGGGTKLEIKR
notes: also called mAb 75
B10: Chimeric anti-ILT3 52B8 mouse VH M64V/human IgG4 (S228P):mouse VL/human Kappa (antibody, V domains shown)
VH: B9 VH with L64V
VL: B9 VL
notes: also called mAb 74
B11: Humanized anti-ILT3 mAb ((52B8 VH1 M64V/VL7) L234A L235A D265S) IgG1/Kappa (antibody)
heavy: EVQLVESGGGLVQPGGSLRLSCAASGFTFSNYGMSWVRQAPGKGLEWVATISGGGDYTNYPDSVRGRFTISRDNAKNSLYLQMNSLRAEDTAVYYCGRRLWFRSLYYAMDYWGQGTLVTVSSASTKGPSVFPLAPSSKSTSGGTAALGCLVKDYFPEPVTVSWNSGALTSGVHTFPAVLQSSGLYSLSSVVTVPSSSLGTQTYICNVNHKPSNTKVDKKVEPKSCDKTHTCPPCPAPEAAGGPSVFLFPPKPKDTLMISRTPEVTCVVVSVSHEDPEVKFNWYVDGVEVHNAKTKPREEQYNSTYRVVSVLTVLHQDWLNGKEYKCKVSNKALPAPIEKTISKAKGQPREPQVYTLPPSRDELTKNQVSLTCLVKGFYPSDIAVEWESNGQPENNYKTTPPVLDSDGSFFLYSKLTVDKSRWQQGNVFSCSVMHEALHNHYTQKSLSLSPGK
light: DIQLTQSPSSLSASVGDRVTITCRASEKVDSFGNSFMHWYQQKPGKAPKLLIYLTSNLDSGVPSRFSGSGSRTDFTLTISSLQPEDFATYYCQQNNEDPYTFGQGTKLEIKRTVAAPSVFIFPPSDEQLKSGTASVVCLLNNFYPREAKVQWKVDNALQSGNSQESVTEQDSKDSTYSLSSTLTLSKADYEKHKVYACEVTHQGLSSPVTKSFNRGEC
notes: also called mAb 28
B12: Humanized anti-ILT3 mAb (52B8 VH1 M64V/VL5) IgG4 S228P/Kappa (antibody)
heavy: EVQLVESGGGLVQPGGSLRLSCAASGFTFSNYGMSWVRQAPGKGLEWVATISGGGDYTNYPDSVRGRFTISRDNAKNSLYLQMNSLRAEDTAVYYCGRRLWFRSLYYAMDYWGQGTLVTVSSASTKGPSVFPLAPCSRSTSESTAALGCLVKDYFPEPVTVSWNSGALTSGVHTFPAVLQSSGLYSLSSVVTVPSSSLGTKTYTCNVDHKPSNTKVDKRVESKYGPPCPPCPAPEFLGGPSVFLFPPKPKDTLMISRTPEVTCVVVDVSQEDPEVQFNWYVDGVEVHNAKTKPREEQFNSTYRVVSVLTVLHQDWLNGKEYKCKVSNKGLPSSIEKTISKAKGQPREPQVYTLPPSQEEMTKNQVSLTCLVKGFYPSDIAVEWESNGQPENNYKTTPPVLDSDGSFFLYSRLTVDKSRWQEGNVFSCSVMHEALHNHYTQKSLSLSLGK
light: B11 light with R72G
notes: also called mAb 30; humanized 52B8 VH1 M64V/VL5
B13: Humanized anti-ILT3 mAb (52B8 VH1 M64V/VL7) IgG4 S228P/Kappa (antibody)
heavy: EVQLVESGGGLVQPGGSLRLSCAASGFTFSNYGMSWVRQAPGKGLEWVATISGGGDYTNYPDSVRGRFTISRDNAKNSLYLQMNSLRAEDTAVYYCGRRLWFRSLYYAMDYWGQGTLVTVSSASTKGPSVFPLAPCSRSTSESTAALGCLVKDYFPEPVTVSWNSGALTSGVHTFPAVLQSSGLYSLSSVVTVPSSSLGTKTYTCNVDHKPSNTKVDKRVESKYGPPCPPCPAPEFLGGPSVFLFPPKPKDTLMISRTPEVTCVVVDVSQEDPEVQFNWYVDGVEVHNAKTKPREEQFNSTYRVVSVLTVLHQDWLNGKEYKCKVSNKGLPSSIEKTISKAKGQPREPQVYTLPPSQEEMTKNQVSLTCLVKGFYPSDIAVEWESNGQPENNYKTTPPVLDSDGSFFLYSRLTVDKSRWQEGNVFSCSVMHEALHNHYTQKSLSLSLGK
light: B11 light
notes: also called mAb 32
B14: Humanized anti-ILT3 mAb ((52B8 VH1 M64V/VL6) L234A L235A D265S) IgG1/Kappa (antibody)
heavy: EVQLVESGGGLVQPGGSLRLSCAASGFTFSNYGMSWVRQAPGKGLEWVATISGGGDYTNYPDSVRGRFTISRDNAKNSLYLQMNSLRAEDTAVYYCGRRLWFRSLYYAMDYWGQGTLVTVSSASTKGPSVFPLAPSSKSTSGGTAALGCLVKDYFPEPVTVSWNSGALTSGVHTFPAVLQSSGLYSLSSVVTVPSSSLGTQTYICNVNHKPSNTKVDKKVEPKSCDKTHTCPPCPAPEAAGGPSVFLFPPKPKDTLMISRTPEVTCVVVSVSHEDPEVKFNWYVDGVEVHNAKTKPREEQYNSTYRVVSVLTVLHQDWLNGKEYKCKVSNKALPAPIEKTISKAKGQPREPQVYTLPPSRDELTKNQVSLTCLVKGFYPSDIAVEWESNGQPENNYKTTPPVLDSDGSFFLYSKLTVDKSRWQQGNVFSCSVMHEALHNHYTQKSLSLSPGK
light: B11 light with L4M
notes: also called mAb 27
B15: Humanized anti-ILT3 mAb (52B8 VH1 M64V/VL6) IgG4 S228P/Kappa (antibody)
heavy: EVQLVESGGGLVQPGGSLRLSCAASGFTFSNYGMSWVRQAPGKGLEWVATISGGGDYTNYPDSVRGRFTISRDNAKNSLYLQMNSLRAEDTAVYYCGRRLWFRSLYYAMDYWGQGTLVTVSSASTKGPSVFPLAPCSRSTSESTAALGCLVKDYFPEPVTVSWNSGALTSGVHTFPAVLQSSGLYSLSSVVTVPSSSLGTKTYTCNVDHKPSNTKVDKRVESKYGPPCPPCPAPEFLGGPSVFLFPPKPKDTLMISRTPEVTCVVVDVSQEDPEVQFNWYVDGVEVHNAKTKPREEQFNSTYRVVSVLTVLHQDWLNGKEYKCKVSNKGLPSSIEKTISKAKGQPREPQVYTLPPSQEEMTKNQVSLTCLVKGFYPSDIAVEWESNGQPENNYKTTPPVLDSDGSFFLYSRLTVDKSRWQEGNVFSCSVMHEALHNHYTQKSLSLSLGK
light: B11 light with L4M
notes: also called mAb 31
B16: Humanized anti-ILT3 mAb (52B8 VH1 M64V/VL8) IgG4 S228P/Kappa (antibody)
heavy: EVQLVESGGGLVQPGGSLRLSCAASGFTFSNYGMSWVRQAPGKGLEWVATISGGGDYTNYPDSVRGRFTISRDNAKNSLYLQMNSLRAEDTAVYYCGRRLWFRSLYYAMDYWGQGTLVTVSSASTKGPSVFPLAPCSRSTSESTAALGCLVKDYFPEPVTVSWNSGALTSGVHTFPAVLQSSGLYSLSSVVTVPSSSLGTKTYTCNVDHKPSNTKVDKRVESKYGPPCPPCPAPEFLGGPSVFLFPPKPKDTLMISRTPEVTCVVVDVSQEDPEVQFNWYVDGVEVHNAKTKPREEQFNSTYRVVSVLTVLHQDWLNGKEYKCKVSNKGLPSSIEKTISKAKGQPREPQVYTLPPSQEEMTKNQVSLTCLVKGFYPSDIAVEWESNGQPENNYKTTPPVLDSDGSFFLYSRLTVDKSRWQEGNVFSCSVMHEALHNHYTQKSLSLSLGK
light: B11 light with S64A
notes: also called mAb 33
B17: Humanized anti-ILT3 mAb ((52B8 VH1 M64V/VL8) L234A L235A D265S) IgG1/Kappa (antibody)
heavy: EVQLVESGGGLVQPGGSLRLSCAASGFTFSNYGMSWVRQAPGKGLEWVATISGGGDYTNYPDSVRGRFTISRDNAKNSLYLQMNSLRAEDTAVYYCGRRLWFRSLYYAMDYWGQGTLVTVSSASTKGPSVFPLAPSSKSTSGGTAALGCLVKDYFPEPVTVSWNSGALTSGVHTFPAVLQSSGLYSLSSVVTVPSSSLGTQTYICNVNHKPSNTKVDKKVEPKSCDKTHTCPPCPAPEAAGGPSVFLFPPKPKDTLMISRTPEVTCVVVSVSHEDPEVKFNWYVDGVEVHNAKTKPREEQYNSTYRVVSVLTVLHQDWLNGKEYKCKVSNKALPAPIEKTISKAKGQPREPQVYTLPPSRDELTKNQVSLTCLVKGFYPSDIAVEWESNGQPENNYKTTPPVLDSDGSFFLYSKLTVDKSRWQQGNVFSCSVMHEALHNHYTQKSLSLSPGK
light: B11 light with S64A
notes: also called mAb 29
B18: Humanized anti-ILT3 mAb ((52B8 VH1 M64V/VL5) L234A L235A D265S) IgG1/Kappa (antibody)
heavy: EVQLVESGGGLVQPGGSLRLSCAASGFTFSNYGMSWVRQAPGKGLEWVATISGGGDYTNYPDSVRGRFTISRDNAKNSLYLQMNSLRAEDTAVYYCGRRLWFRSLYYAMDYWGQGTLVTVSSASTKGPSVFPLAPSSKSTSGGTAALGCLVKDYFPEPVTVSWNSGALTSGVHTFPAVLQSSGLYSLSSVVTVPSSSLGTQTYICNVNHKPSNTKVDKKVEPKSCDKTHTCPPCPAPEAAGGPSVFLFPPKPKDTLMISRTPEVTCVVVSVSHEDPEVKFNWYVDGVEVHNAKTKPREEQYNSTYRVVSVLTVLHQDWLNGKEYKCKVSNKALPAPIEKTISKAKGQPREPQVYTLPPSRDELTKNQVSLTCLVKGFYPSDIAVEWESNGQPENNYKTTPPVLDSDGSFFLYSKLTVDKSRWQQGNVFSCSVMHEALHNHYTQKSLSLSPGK
light: B11 light with R72G
notes: also called mAb 26
B19: Humanized anti-ILT3 mAb ((52B8 VH1 M64V/VL2) L234A L235A D265S) IgG1/Kappa (antibody)
heavy: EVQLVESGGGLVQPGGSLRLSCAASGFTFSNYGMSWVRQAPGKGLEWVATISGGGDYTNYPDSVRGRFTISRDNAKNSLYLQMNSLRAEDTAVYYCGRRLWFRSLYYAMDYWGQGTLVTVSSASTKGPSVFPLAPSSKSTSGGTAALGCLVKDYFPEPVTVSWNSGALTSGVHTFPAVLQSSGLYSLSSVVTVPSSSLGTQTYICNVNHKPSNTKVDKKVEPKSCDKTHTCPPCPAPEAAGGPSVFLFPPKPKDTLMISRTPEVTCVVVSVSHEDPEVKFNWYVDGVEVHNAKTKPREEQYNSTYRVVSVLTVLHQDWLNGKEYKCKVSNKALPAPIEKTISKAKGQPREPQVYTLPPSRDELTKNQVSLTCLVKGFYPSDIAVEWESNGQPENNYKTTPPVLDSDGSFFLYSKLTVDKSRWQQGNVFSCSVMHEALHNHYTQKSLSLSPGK
light: B5 light
notes: also called mAb 25

The first assay addresses T1, human ILT3 expressed on cells (human, UniProt Q8NHJ6 22-448).
T1 construct: whole, on cells; also called huILT3; LILRB4
Put plainly: cELISA, CHO human ILT3 cells.
What is called EC50 is the concentration giving half of the maximal effect. B1 yielded an EC50 of 0.088 µg/mL.

With B2, the EC50 came out at 0.079 µg/mL.

B3 came in with an EC50 of 0.057 µg/mL.

Take B4: a half-maximal response (EC50) required 0.1 µg/mL.

In the case of B5, the EC50 amounted to 0.085 µg/mL.

B6: the EC50 stood at 0.077 µg/mL.

B7 returned an EC50 of 0.079 µg/mL.

Regarding B8, the response was half-maximal at 0.7 µg/mL (EC50).

B9 gave an EC50 of 0.086 µg/mL.

In turn, B10 displayed an EC50 of 0.075 µg/mL.

Another assay concerns the target T2, Human ILT3 (LILRB4) extracellular domain with C-terminal His Tag (human, UniProt Q8NHJ6 22-259).
T2 construct: the claims count residues 1-238 as the extracellular domain; also called human ILT3-His; ILT3_H
Kind of assay: SPR (Biacore), human ILT3-His. Here is the method: (§1) The binding kinetics and affinities of anti-human ILT3 clones for human or rhesus ILT3-His tagged recombinant protein were measured by surface plasmon resonance using a Biacore™ T200 system (GE Healthcare, Piscataway, NJ). HBS-EP+ buffer (BR-1006-69) was used as the running buffer. Anti-human Fc antibody (Human Fc Capture Kit, BR100839, GE Healthcare) was immobilized via amine coupling chemistry in all four flow cells on a Series S CM5 sensor chip (BR100530 or 29149603, GE Healthcare) following manufacturer instructions. Flow cell 1 was used as reference for background subtraction and was not used for capture. […] Following each injection cycle, all four flow cells were regenerated using 30 second injection of 3M MgCl₂ solution at a flow rate of 10 μL/minute. Reference subtracted sensorgrams were fit to a 1:1 Langmuir Binding Model in the Biacore™ T200 Evaluation Software (Version 2.0) to determine the association (ka) and dissociation (kd) rate constants and the equilibrium dissociation constant KD (=kd/ka).
For orientation: SPR reads the build-up and loss of mass on a sensor chip optically.
The Kd is the free concentration of one partner at which half of the binding sites on the other are occupied at equilibrium, for simple one-to-one binding. B11 gave a Kd of 0.57 nM.

Take B12: binding was put at a Kd of 0.6 nM.

Take B1: binding was characterised by a dissociation constant (Kd) of 0.77 nM.

The molecule B13 had a Kd of 0.53 nM.

On to B14, for which the affinity, expressed as Kd, was 0.92 nM.

For B15, the Kd amounted to 0.88 nM.

B16 had a dissociation constant Kd of 0.54 nM.

B17: binding was put at a Kd of 0.56 nM.

B18: the Kd was 0.61 nM.

Take B2: binding was characterised by a dissociation constant (Kd) of 1 nM.

As to B3, the Kd is 0.97 nM.

Take B4: the Kd was 1.1 nM.

The molecule B5 came in with a Kd of 1.1 nM.

Molecule B6 had a Kd of 1 nM.

On to B7, for which the Kd was determined as 0.88 nM.

Turning to B8, the Kd is 1.1 nM.

The molecule B19 came in with a Kd of 0.74 nM.

In the case of B9, the Kd is 0.41 nM.

B10 registered a Kd of 0.44 nM.

In a further assay the target is T3, Rhesus monkey ILT3 expressed on CHO-K1 cells (rhesus monkey (Macaca mulatta)).
T3 construct: whole, on cells; also called rhILT3; CHO-rhesus ILT3
Kind of assay: cELISA, CHO rhesus ILT3 cells.
In turn, B1 had a half-maximal effective concentration (EC50) of 0.12 µg/mL.

B2 returned an EC50 of 0.137 µg/mL.

In the case of B3, a half-maximal response (EC50) required 0.081 µg/mL.

The molecule B4 registered an EC50 of 0.118 µg/mL.

As for B5, it took 0.148 µg/mL to reach a half-maximal effect (EC50).

On to B6, for which the response was half-maximal at 0.126 µg/mL (EC50).

B7 gave an EC50 of 0.112 µg/mL.

B8 had a concentration for a half-maximal effect (EC50) of 0.109 µg/mL.

Regarding B9, it took 0.137 µg/mL to reach a half-maximal effect (EC50).

With B10, it took 0.096 µg/mL to reach a half-maximal effect (EC50).

The next assay has as its target T4, rhesus ILT3-His tagged recombinant protein (rhesus monkey (Macaca mulatta)).
T4 construct: also called ILT3_MM; not shown: His tag
T4 chain: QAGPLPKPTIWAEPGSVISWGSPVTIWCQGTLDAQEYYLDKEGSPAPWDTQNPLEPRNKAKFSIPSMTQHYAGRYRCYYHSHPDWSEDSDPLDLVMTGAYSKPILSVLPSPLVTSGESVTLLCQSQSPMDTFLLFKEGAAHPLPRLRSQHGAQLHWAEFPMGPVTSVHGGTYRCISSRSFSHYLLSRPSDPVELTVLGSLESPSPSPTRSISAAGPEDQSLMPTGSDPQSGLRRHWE
Put plainly: SPR (Biacore), rhesus ILT3-His. The protocol:
as §1
In the case of B11, the Kd stood at 5.6 nM.

In the case of B12, the Kd turned out to be 4.8 nM.

With B1, the Kd was found to be 15 nM.

For B13, the Kd stood at 5.6 nM.

For B14, the Kd stood at 10 nM.

B15: the Kd worked out at 10 nM.

Turning to B16, the Kd came out at 5.6 nM.

Take B17: the Kd came out at 5.7 nM.

For the molecule B18, the Kd was 4.9 nM.

Take B2: the dissociation constant Kd turned out to be 22 nM.

For the molecule B3, the Kd came out at 21 nM.

Consider B4, for which the Kd was found to be 21 nM.

With B5, the Kd stood at 22 nM.

Take B6: the Kd came out at 22 nM.

Regarding B7, the Kd is 27 nM.

Consider B8, for which the Kd is 20 nM.

Regarding B19, the Kd came to 8.7 nM.

Regarding B9, the Kd came out at 9.3 nM.

B10: the Kd was determined as 9.2 nM.

A further assay deals with T2, Human ILT3 (LILRB4) extracellular …. Kind of assay: Biacore SPR, column huILT3 KD (nM).
For the molecule B11, the Kd came out at 0.57 nM.

In the case of B12, binding was put at a Kd of 0.6 nM.

Regarding B13, the Kd worked out at 0.53 nM.

In turn, B14 yielded a Kd of 0.92 nM.

Regarding B15, the Kd amounted to 0.88 nM.

Regarding B16, binding was characterised by a dissociation constant (Kd) of 0.54 nM.

B17 yielded a Kd of 0.56 nM.

In turn, B18 had a Kd of 0.61 nM.

Take B5: the Kd came out at 0.72 nM.

B19 showed a Kd of 0.74 nM.

For another assay, the target named is T4, rhesus ILT3-His tagged recombinant …. Kind of assay: Biacore SPR, column rhILT3 KD (nM).
As for B11, the Kd came to 5.56 nM.

For the molecule B12, the Kd is 4.8 nM.

B13: the Kd is 5.61 nM.

With B14, the Kd worked out at 10.3 nM.

Consider B15, for which the Kd is 10.3 nM.

For B16, the Kd was 5.59 nM.

With B17, the Kd is 5.74 nM.

In the case of B18, the Kd stood at 4.9 nM.

As for B5, the dissociation constant Kd is 8.77 nM.

As to B19, the Kd was found to be 8.66 nM.
